Test: soluble on expression in E. coli; label from the status in PepcDB or PDB records

Row | Sequence | soluble on expression in E. coli
1 | MMFGRFTERAQKVLALSQEEAIRIGHNNIGTEHILLGLVREGEGIAAKALIALGLSPEKVQKEVEALIGRGTEASQTVHYTPRAKKVIELSMDEARKLGHSYVGTEHILLGLIREGEGVAARVLNNLGVSLNKARQQVLQLLGSNEASSGHQGGSSTNANTPTLDSLARDLTVVARENRLDPVIGRGKEIQRVIEVLSRRTKNNPVLIGEPGVGKTAIAEGLAQQIVNNEVPETLRDKRVMTLDMGTVVAGTKYRGEFEDRLKKVMDEIRQAGNIILFIDELHTLIGAGGAEGAIDASNILKPSLARGELQCIGATTLDEYRKYIEKDAALERRFQPIHVDEPSLDESTQILKGLRDRYEAHHRVSITDDAIDAAVKLSDRYITDRFLPDKAIDLIDEAASKVRLRSYTTPPNLKELEVKLEEIRKEKDAAVQSQEFEKAASLRDMEQRLREKLEDTKRQWKEQQGKENSEVTVEDIANVVSTWTRIPVSKLAQTETDKLLNLESILHDRVIGQDEAVVAVAKAVRRARAGLKDPKRPIGSFIFLGPTGVGKTELARALAESMFGDEDAMIRIDMSEYMEKHSTSRLVGSPPGYVGYEEGGQLTEKVRRKPYSVVLLDEVEKAHPDVFNILLQVLEDGRLTDSKGRTVDFRNTIVIMTSNVGAEALKRNKHLGFNVQDESRDYSDMKGKVMDELKKAFRPEFLNRIDEIIVFHMLEKKHIQEIVTLMVNQLVNRLKEQEIELHLTEGAISAIADKGFDREYGARPLRRAIQKHVEDRLSEELLKGAIEKGQKVIFDVEGESFVIHSAEKVK | soluble
2 | MMFNFYQFLYNLQNVSPFIDFSVLKQLTHTKMRENEPARFETRSFSQLIDHARSWKTEVRGMTTQGFTKISLMRAEKDRLNMYAISSVPGTNTQSIFSVTIPLELVEKAQVADRKFELKLKSGYNVDSYIRKTPPSAEFTLQCERQRSQVVTGISDYEIRNGKMILMAGDQLFRYNPLNEALAAIPIAVPDDQSSTEPMDISEGSITSGTKGCSNEAPQSSTVPPVTRIPIKKPTTSTEKPATAPPTNNFVSSAKVCPADSSLLAYVLNKQVYIEKNGKIIHRTSSNSKHITNGVPSYIVQEELERFEGIWWSESKTRLLYEHVNEEKVAESQFGVNGDPPVAPMKYPRAGTKNAYSTLRMVILENGKAYDVPLKDEVIYKHCPFYEYITRAGFFSDGTTVWVQVMSRDQAQCSLLLIPYTDFLLPEELGGSIKEDNLQLSTDLNMGVWDDKSHEETMEKPPRGKLRGTVQIHKARNDYWINTHNAIYPLKITDEEHPMYEFIYCLEKPNGSCLALISAELDQNGYCRHTEEKLLMAENFSINKSMGIVVDEVRELVYYVANESHPTEWNICVSHYRTGQHAQLTESGICFKSERANGKLALDLDHGFACYMTSVGSPAECRFYSFRWKENEVLPSTVYAANITVSGHPGQPDLHFDSPEMIEFQSKKTGLMHYAMILRPSNFDPYKKYPVFHYVYGGPGIQIVHNDFSWIQYIRFCRLGYVVVFIDNRGSAHRGIEFERHIHKKMGTVEVEDQVEGLQMLAERTGGFMDMSRVVVHGWSYGGYMALQMIAKHPNIYRAAIAGGAVSDWRLYDTAYTERYMGYPLEEHVYGASSITGLVEKLPDEPNRLMLVHGLMDENVHFAHLTHLVDECIKKGKWHELVIFPNERHGVRNNDASIYLDARMMYFAQQAIQGFGPTTAAPRQGPL | not soluble
3 | MMFNNNNWKLSVTDINLYENTVSLDGQPYPLSLAIKTLIPGYLSGLPSTSREAMELLEALAEAGVTIGNFFSNDLMTAYGRRQMNKRAEAERIAKEQRLQAERMREENMTDAEWQKELQRREQVKAERRTYGESLRSATHSAGRSRAAIVADLESGGNWMDSL | not soluble
4 | MMGFEKVEHLLPDTVLDIVDVIGLAATEQLVKAIGGARFKFGKGKVDTERLAILVEAIGEVKTHELLQVYGGEELYVPRCGKALIQLRNHRFYQEFVKLRDIDKKSGLMAMTKLCPKYGISSRTGYTIINEMSRPAAQQAALF | not soluble
5 | MMINFEAIIGIEVHVVLNTATKMFSPAPNQAQNATPNQFINAIDLGLPGTMPQVNEQAVQKALILADALNMQRVQPVLVFDRKHYFYQDLPKGFQITQQNFPIAQNGYVEIVENNKAQRIIIERFHLEEDTAKQHFVDGQILLDFNRCGAPLIEVVTAPVIKSAKQSKAYLQKLRQILIVNNISNAKLEDGSMRSDCNVSVRLKGQTAFGTKVEIKNINSLNNVEKAIDLEIARQVKALIKGEPVQQVTLTYDDKTNTNVFMRKKDNSVDYRYFIEPNIMSSNIDELLQKPNKAFNLTEFFTKLKEAGVNEQLNQLVVDDLTLFNAYTKINSVINSPQDTIRWLCIELMGQLNKLQKPLKDKTIDHLIILIQMVQKGTVNQKQAKQLIELMLDNGQDPQSLAKLHNLEQITDEKQLTQIIQQIFKENEGEILKNLDRVERIQKLIIGQVMQRTHNRANPQQVFIIVEKLLHDFSERAS | not soluble
6 | MMINRINLTDIRSFVLIARLGNFTKAAETLDVSRSHVSRQISSLEKQMGVTLLIRTTRTLRLTEAGKHFYHQCEQALHTIDQALLSAVDDVEKVQGEIKINCVGGYLGEVFLADIVNTFMQQYPDVSISLDFSSNRVDLIEEEFDIAFRMGSLEDSGFVAKKLLDIEMGTLASPKYLQQYGRPSHPKELQQHHCLTGSVRKWHFQSLVNKEHYDVSIKGNLQCKNGRVLVAGAIAGNGIIRVPLIYCQQELDDKKLVQVFEEWGIPTVDFSAIYHRDRYQPKRIRTFIDFVKQYSDSLFT | not soluble
7 | MMISLYSAATGMSAQQFKLDTIANNLANVDTTGYKKVRAEFQDLLYQYVKNAGTPTAATSSLPTGLYVGHGVRTAATTRIFTLGNFEQTGNALDLAIAGDGFFQIQLQDGRIAYTRDGSFKMDSEGRIVTSNGLLLVPEITIPENAVSINVSPDGIVSAELQDGTIQELGTITLVRFVNPSGLKSIGDNLYIATPASGDPIEGVPGQDGFGAIKQGFLEKSNVDVVREMVDMITAQRAYEFNSRVIQTADEMLRTATNVKR | soluble
8 | MMIVGCYCMNKLVFCLMGPTASGKTGLACELLTHFPFEIISVDSAMIYRDMNIGTAKPSIHELQRAPHYLIDIKDPVESYSAAQFCTDALSLCAEIIKRGNIPLLVGGTMMYFNALQKGLATLPEADEAVRKRLEEEALSQGWDFLYQKLSQLDPVTAARIHAHDTQRIQRALEVYYLTGSTLSTYLTGPHERPDYYFVNLALFPEQRSWLHERIAQRFDAMLSEGFIEEVQQLQAKWPIQINLPSMRCVGYRQILQHLAGHYDYETMREKGIAATRQLAKRQLTWLRHWEGALFYDSQNVGFNTDIIAKIREILDNTVSNLEHHHHHH | not soluble
9 | MMKDAVVITVGNEVLKGRTVNTNASFIGNFLTYQGYRVKLGLTVMDDLEDISWAFKTAMDRGDVIVSSGGLGPTFDDMTVEGFAKAIGSDNKLNQDALAMIEEKYKNIEITPERKKMAMMPEVCKPIRNPVGTAPGLLCSVGGKKVVILPGVPMEMQALLESMRDSLAIENSCYFDESINITGIMESTFAPYVERVMREVDGVYVKSHPKNIEVVNPSLEIEVSAYDVSQEAARKKVKDAIARIRAYAETILDSKDK | not soluble
10 | MMKFDNSYAHLPERFSAAVLPTPVKAPRLIAFNRTLAEELLLDVADLDDDRLAAIFSGNVVPQGAEPLAMAYAGHQFGGFVPQLGDGRAILLGEVIDVNGRRRDIQLKGSGPTPFSRRGDGRAALGPVLREYIVSEAMFALGIPATRALAAVLSGDRVQREVGLPGGVFTRVAASHIRVGTFQFFAAREDDEAIRSLADYVIDRHYPDAKNTENPYLALLRGIAERQCALIARWMMVGFIHGVMNTDNMAVSGETIDFGPCAFLDEYHPNKVFSSIDAQGRYAYNNQPGIAQWNIARLAECLLPLLDPEVEKAAELANAVLADFAAAFPQRWLTGMREKLGLTTEEEGDMDLIQSLLSLMQASEADFTLTFRRLSHAANGDAEPFRGMFIDIAGADAFLTRWRERAGREGISDSERSAAMLSINPAIIPRNHRIEELIEAAVEDGDFEPFHAMLTAIATPFEERPDNFVYMQPPMSHERVFRTFCGTLEHHHHHH | soluble
11 | MMKFKKCLLPVAMLASFTLAGCQSNADDHAADVYQTDQLNTKQETKTVNIISILPAKVAVDNSQNKRNAQAFGALIGAVAGGVIGHNVGSGSNSGTTAGAVGGGAVGAAAGSMVNDKTLVEGVSLTYKEGTKVYTSTQVGKECQFTTGLAVVITTTYNETRIQPNTKCPEKS | not soluble
12 | MMKITDEKAEDVNLSTIKVVKRDGRLVTFDDQKIYDALIKAEQKIHDQVTPLTHQKVQSIVADVNREIAERFTNNVKIYEIQNIVEHTLLSNNEYALAEEYIHYRTQRDFERSKATD | not soluble
13 | MMKKIKILSLLVCLIALFTACHDEEDKTNYGSRTVLVYIAGDNSLSRFASEDLNEMIEGMQSVDDNHNNLLVYMDKGSNPKLIRLRKDKDVVVQDVIATYDAQNSVDVDVMKNVFTTAFSHYPADSYGVVFWSHGDGWLPYNNPSTRWWGQDTGNGDNRMNIPDLNEALSVAPHFDFILFDACYMQSVEVVYQLRNRADYFIGSPTEIPGPGAPYEVVVPALFAVNSPAVSIAENYYSVYAKKYNSTGAGISNENWTGGVSISVIKSSELSALAAATRDVLQTAVSMQQSHNIDISSILCYDPLRENNYHDLMGLMQSIQGNSQAFNHYKEMYKNAVIWKNTTDNNYCTYSSGYGKMVSMDGFEGVSTYILRENNSSQEKYYRQFVEWYSAADWDSVDWLEHHHHHH | not soluble
14 | MMKKLFLDTHSASGEIKLTDGLLYWFPQFLTPIQADQAFQQMLTHLDWQQKSIRLFGKSVLQPRLIAWYGEKGYRYSGLSLSAQPFPPPLLTLKTQCEQAAQAPFNSVLANLYRDGQDSMGWHQDNEPELGSNPVIASLSLGESRRFLLRHHKDHALQVECELNHGDLLIMAGNTQHFWQHAIPKTRQTKQTRINLTFRNILLEHHHHHH | soluble
15 | MMKKYLISLAKDQQRREQFFTQADTADFQVFDAVNTMQQEWDSLAVKYDITQFAQRYQRSVTKGEIGCTLSHLGVYQWIVADPQIGDNDYCLVCEDDALFNQDVQSSLTQLLSQNVHADIVLVGQSKIFGFDDAMLEIEYPTTFAPQMVAIGNSIYRYAYPYKNYYAGTVAYLIKKSTARKLVSITDLPFWLADDFILFEQQFGLDIMVVRPLMAIENPALCSNLETARASTQQALSKKLLKYPFKKWLAIQRNIGLKNDQCGNLEHHHHHH | not soluble
16 | MMKLKFYLVYLWYKVLLKLGIKTDEIYYIGGSEALPPPLTKEEEEVLLNKLPKGDQAARSLLIERNLRLVVYIARKFENTGINIEDLISIGTIGLIKAVNTFNPEKKIKLATYASRCIENEILMHLRRNNKNRSEVSFDEPLNIDWDGNELLLSDVLGTDDDIITKDLEATVDRHLLMKALHQLNDREKQIMELRFGLAGGEEKTQKDVADMLGISQSYISRLEKRIIKRLRKEFNKMV | not soluble
